Measured values reported in patent US5591427A, “Human Interleukin-3(Il-3) variants and their use to promote or antagonize IL-3-mediated processes” (Medvet Science Pty. Ltd., priority 1979, dated 1997).
Where a chain is given by its changes, count along the chain named.

B1: Gly 33: literature hIL-3 variant in which Pro 33 was substituted with Gly (Lokker et al, 1991a) (protein, UniProt P08700 20-152, looked up, variant P33G)
Interleukin-3: APMTQTTPLKTSWVNCSNMIDEIITHLKQPPLGLLDFNNLNGEDQDILMENNLRRPNLEAFNRAVKSLQNASAIESILKNLLPCLPLATAAPTRHPIHIKDGDWNEFRRKLTFYLKTLENAQAQQTTLSLAIF
B2: M9: human IL-3 mutant, amino acid 116 (Lys) replaced by Val (protein, UniProt P08700 20-152, looked up, variant K116V)
Interleukin-3: B1 Interleukin-3 with G33P, K116V
B3: M47: human IL-3 mutant, glutamic acid at position 22 replaced by arginine (protein, UniProt P08700 20-152, looked up, variant E22R)
Interleukin-3: B1 Interleukin-3 with E22R, G33P
B4: M6: human IL-3 mutant, amino acid 101 (Asp) replaced by Ala (protein, UniProt P08700 20-152, looked up, variant D101A)
Interleukin-3: B1 Interleukin-3 with G33P, D101A
B5: M25: human IL-3 mutant with substitution of residues 21, 22 and 25 (protein, UniProt P08700 20-152, looked up, variant D21A E22L T25A)
Interleukin-3: B1 Interleukin-3 with D21A, E22L, T25A, G33P

Legend:
M-07 cell line = details: E. coli expressed variants, literature; cited from earlier work
IL-3 receptor = target: T1, IL-3 receptor (Homo sapiens, UniProt P26951+P32927); details: E. coli expressed variants, literature; cited from earlier work
T1 sequence (P26951 19-378): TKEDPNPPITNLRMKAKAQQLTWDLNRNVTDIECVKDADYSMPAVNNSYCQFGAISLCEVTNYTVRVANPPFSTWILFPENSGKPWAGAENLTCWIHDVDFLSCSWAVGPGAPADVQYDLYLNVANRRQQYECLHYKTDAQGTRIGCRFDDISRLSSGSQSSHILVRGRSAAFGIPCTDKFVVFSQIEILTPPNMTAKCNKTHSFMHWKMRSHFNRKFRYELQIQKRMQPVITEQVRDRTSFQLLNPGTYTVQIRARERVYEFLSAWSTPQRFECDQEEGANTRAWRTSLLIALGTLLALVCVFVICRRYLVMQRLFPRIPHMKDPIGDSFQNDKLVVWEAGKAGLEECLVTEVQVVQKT
T1 sequence (P32927 17-897): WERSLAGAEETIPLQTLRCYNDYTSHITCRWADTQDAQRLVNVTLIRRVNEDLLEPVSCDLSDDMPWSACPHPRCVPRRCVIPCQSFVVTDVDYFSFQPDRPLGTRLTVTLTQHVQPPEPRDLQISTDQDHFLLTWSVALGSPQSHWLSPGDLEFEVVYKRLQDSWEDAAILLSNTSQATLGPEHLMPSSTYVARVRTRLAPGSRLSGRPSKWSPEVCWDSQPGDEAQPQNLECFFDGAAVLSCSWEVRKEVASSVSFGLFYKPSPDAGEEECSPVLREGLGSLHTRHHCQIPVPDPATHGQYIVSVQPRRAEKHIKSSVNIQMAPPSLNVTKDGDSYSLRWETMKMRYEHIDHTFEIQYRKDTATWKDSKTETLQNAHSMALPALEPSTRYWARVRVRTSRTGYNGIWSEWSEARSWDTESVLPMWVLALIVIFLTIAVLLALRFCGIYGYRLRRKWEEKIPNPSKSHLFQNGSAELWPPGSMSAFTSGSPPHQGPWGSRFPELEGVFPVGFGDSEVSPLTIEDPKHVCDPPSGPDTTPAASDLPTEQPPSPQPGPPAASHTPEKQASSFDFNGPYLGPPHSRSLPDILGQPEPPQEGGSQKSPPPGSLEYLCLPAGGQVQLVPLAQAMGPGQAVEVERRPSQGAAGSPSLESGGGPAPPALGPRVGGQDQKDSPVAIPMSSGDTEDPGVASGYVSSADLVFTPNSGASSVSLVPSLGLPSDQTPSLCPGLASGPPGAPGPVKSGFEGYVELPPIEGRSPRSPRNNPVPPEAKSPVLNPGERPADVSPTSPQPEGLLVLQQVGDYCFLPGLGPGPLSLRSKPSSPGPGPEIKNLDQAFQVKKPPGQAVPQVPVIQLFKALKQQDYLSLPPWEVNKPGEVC

basophils = assay: Histamine release assay with basophils; assay type: cell-based, human; details: FIG. 4
Procedure: This was carried out as previously described (Lopez et. al., 1990, J. Cell. Physiol., 145, 69-77). Briefly, basophils were obtained from the peripheral blood of normal individuals after dextran sedimentation and centrifugation over Lymphoprep. The percentage of basophils in these preparations varied between 0.2% and 10%. In 300 μl 2×10^4 cells were incubated with 2 μg/ml of purified human IgE. IgE-sensitisedcells were mixed with a goat IgG antihuman IgE (Cappel 0101-0061) and rhIL-3, in a final volume of 500 μl. After incubation for 60 min at 37° C., the cells were centrifuged and 350 μl aliquots removed and stored at -20° C. before assaying for histamine content. Histamine was assayed using a radioertzymatic method essentially as described (Shaff and Beavan, 1979, Anal. Biochem., 94, 425-430). Briefly, samples of 30 μl were diluted with an equal volume of water and mixed with a 30 μl solution comprising 27.5 μl 0.1 M sodium phosphate, pH 7.9, 1.5 μl rat kidney histamine-N-methyltransferase, and 1.0 μl (0.5 μCi)^3 H-methyl-S-adensoyl-L-methionine (Dupont Net 155, low SA). Tritium-labelled methyl-histamine was extracted into chloroform/ether, dried, and counted by scintillation spectrophotometry. […] as nanograms of histamine per milliliter by extrapolation to a standard curve constructed with 10, 5 and 1 ng/ml of histamine (SIGMA).

[1] = test system: chronic myeloid leukaemic (CML) cells; assay: Proliferation of chronic myeloid leukaemic (CML) cells, [3H] thymidine incorporation; assay type: cell-based, human; details: for stimulation of CML cell proliferation: FIG. 2, FIG. 8; for Relative biological activity, PROLIFERATION CML: concentration of IL-3 mutant giving 50% of biological activity compared to that of wild type IL-3
Procedure: (b ) Proliferation of chronic myeloid leukaemic (CML) cells: Primarily CML cells from one patient were selected for their ability to incorporate [^3 H] thymidine in response to IL-3 as described (Lopez el. al., supra ). Briefly, CML cells were placed at 2×10^5 cells/mL fresh medium containing different concentrations of IL-3. Cells were incubated for 24 hours in a flat bottom 96-well NUNCLON plates (2×10^4 cells/well) before being pulsed with [^3 H] thymidine (0.5 μCi/well) for four more hours at 37° C. The cells were then harvested onto glass filters with a Titertek automated cell harvester and counted into a Beckman liquid scintillation counter. Data are expressed in cpm, and each point is the mean of six replicates.

monocytes = assay: Stimulation of human monocyte adherence (51Cr adhesion assay); assay type: cell-based; details: for stimulation of monocyte adherence: FIG. 3; for Relative biological activity, MONOCYTE: concentration of IL-3 mutant giving 50% of biological activity compared to that of wild type IL-3
Procedure: (a) Monocyte purification. Monocytes were purified from the peripheral blood of normal donors, obtained from the Adelaide Red Cross Transfusion Service, as previously described (Elliott et. al., 1990, J. Immunol., 145, 167-171). In brief, mononuclear cells were prepared by centrifugation of whole blood on lymphoprep cushions (Nyegaard, Oslo, Norway) and washed twice in HBSS, 0.02% EDTA, 0.1% heat inactivated FCS (Flow Laboratories, North Ryde, Australia) and monocytes were purified in a Beckman J-6M/E elutriator using the Sanderson chamber, a flow rate of 12 ml/min and a constant rotor speed of 2050 rpm. Cells remaining in the chamber after 30 min were collected, washed twice in HBSS, and used immediately. Using these methods, monocyte purity as assessed by morphology and nonspecific-esterase staining was always >90% and usually >95%. The major contaminating cell types were lymphocytes and granulocytes (principally basophils).
(b) Adhesion assay. Adhesion was measured by an isotopic method essentially as described (Elliott et. al., supra). In brief, purified monocytes (0.5 to 1×10^8) were resuspended in 1 ml RPMI 1640 with 0.1% FCS and antibiotics and incubated for 30 min at 37° C. with 500 μCi^51 Cr in the form of sodium chromate (Amersham International., Buckinghamshire, England). Cells were washed thrice in RPMI 1640 and resuspended in culture medium consisting of RPMI 1640, 10% FCS, antibiotics, and 0.2% sodium bicarbonate. For measurement of adhesion, 1 to 2.5×10^5 monocytes were aliquotted per well in 96-well microtitre plates (Nunc, Karnstrup, Denmark) together with stimuli or control medium to a total volume of […], and incubated for the indicated periods. […] At harvest, samples of supernatant were taken to assess spontaneous ^51 Cr release (usually <10% of cell-associated radioactivity), wells were washed three times with RPMI 1640 at 37° C., and residual adherent cells lysed in 10 mM Tris-hydrochloride, and 1% Nonident p40 detergent (Sigma). Lysates were transferred to tubes and counted in a Packard auto-gamma 5650. Percent adherence was calculated according to the formula: [formula]

[2] = test system: bone marrow progenitor cells; assay: Colony assay: clonal proliferation and differentiation of bone marrow progenitor cells in semi-solid agar; assay type: cell-based; details: for Relative biological activity, PROLIFERATION COLONIES: concentration of IL-3 mutant giving 50% of biological activity compared to that of wild type IL-3, mean ± SD
Procedure: (a) Colony assay: this assay measured the clonal proliferation and differentiation of bone marrow progenitor cells in semi-solid agar and was carried out as described (Lopez et. al., 1985, Blood 72, 1797-1804). Briefly, low density, macrophage-depleted bone marrow cells were cultured at a concentration of 0.5 to 1×10^5 /mL in Iscove's modified Dulbecco's medium (IMDM, GIBCI, Grant Island, N.Y.), containing 0.33% agar (Difco, Detroit), 25% FCS (Commonwealth Serum Laboratories, Parkville, Victoria, Australia), and 20 μmol/LK2-mercaptoethanol. Different dilutions of IL-3- containing COS cell supernatants were added to each plate. Plates were prepared in triplicate and scored after incubation at 37° C. in 5% CO2 in a humid atmosphere for 14 days. Clones containing 40 cells were scored as colonies.

[3] = target: T2, IL-3R α chain and β chain (Homo sapiens, UniProt P26951+P32927); assay: Competition for 125I-IL-3 binding to reconstituted IL-3 high affinity receptor (α and β chains) in COS cells; details: FIG. 7
T2 construct: amplify the complete coding region of the IL-3R alpha chain; also to amplify the coding region of the IL-3R α chain; expressed in transfected cells; host or cells: COS cells (pCDM8 vector, electroporation)
T2 sequence (P26951 19-378): T1 sequence (P26951 19-378)
T2 sequence (P32927 17-897): T1 sequence (P32927 17-897)
From the text: PolyA+ RNA was isolated from the human cord blood cell line KMT2. Oligo dT primed double stranded cDNA was synthesised and used as template for PCR amplification. The PCR primers were designed to amplify the complete coding region of the IL-3R alpha chain and also to amplify the coding region of the […]. The PCR products were cloned into the vector pGEM-2 for sequence verification, and then into the eukaryotic expression vector, pCDM8. The […]-containing plasmid was transfected into COS cells by electroporation, either on its own or in conjunction with the […], and after two days the cells were used for binding studies.

[4] = target: T3, IL-3 high affinity receptor of monocytes (Homo sapiens, UniProt P26951+P32927); assay: Competition for 125I-IL-3 binding to the high affinity receptor of monocytes; details: FIG. 5, at the concentrations tested
T3 construct: endogenous in cells; host or cells: freshly purified human peripheral blood monocytes
T3 sequence (P26951 19-378): T1 sequence (P26951 19-378)
T3 sequence (P32927 17-897): T1 sequence (P32927 17-897)
Procedure: (a) Radioiodination of hIL-3: rh IL-3 (gift from Dr. L. Park, Immunex Corporation, Seattle, Wash.) was radioiodinated by the ICI method as previously described (Contreras et. al., supra). Iodinated protein was separated from free ^125 I by chromatography on a Sephadex G-25 PD 10 column (Pharmacia, Uppsala, Sweden) equilibrated in phosphate-buffered saline (PBS) containing 0.02% Tween 20, and stored at 4° C. for up to 4 weeks. Before use, the iodinated protein was purified from Tween and nonprotein-associated radioactivity by cation exchange chromatography on a 0.3-ml CM-Sepharose CL-6B column (Pharmacia) and stored at 4° C. for up to 5 days.
(b) Competition Binding assay. Freshly purified monocytes were suspended in binding medium consisting of RPMI 1640 supplemented with 20 mmol/L/HEPES and 0.5% bovine serum albumin (BSA). […] Cell suspensions were then overlaid on 0.2 mL FCS at 4° C. and centrifuged for 30 seconds at a maximum speed in a Beckman Microfugre 12. The tip of each tube was cut off above the visible cell pellet and counted in a Packard Auto-Gamma 5650 (Downer's Grove, Ill). The results are expressed as Percent competition where 100% is the competition observed in the presence of 100 fold excess native IL-3.

Molecule	stimulation of CML cell proliferation [1]	Relative biological activity, PROLIFERATION CML [1]	stimulation of monocyte adherence (monocytes)	Relative biological activity, MONOCYTE (monocytes)	Relative biological activity, PROLIFERATION COLONIES [2]	further results
B1	–	–	–	–	–	proliferation activity, M-07 cells (M-07 cell line): enhanced proliferation activity; receptor binding capacity (IL-3 receptor): without a significant modification
B2	more potent than the wild type IL-3	328	more potent than the wild type IL-3	312	420	histamine release from basophils (basophils): increased histamine release; number of day 14 colonies [2]: increase in the number of day 14 colonies
B3	–	–	–	–	–	binding to cotransfected α and β chains [3]: less binding
B4	more potent than the wild type IL-3	205	more potent than the wild type IL-3	153 ± 48	104 ± 35	–
B5	lack of stimulation	–	lack of stimulation	–	–	binding to high affinity IL-3 receptors of monocytes [4]: negative at binding
